As usually defined, the Km is the substrate concentration at which the rate is half of its maximum. As a reminder, the kcat is the maximal rate divided by the concentration of active sites. In general, kcat/Km refers to the second-order rate constant that governs catalysis at low substrate concentration.

What all share (test): purified protein
What all share (settings): 10 mM HEPES pH 7.5, 200 mM NaCl, 15 µM ZnSO4, 50 µg/mL BSA, 30°C

For series [1], the system named is CCN1CCN(C(=O)N[C@@H](C(=O)N[C@@H]2C(=O)N3[C@@H]2SC(C)(C)[C@@H]3C(=O)O)c2ccccc2)C(=O)C1=O.
The test system of series [2] is CC(C)(O/N=C(\C(=O)N[C@@H]1C(=O)N2C(C(=O)[O-])=C(C[n+]3ccccc3)CS[C@H]12)c1csc(N)n1)C(=O)O.
For series [3], the system named is CO/N=C(\C(=O)N[C@@H]1C(=O)N2C(C(=O)O)=C(COC(C)=O)CS[C@H]12)c1csc(N)n1.
Series [4] concerns CO/N=C(\C(=O)N[C@@H]1C(=O)N2C(C(=O)[O-])=C(C[N+]3(C)CCCC3)CS[C@H]12)c1csc(N)n1.
The test system of series [5] is C[C@@H](O)[C@H]1C(=O)N2C(C(=O)O)=C(SCCN=CN)C[C@H]12.

CJO-1 (Chryseobacterium joostei): the Km in series [1] is recorded as 1,900 ± 300 µM; in series [2], 1,000 ± 400 µM; in series [3], 126 ± 4 µM; in series [4], 440 ± 60 µM; in series [5], 2,700 ± 500 µM. For the same substance, the kcat in series [1] is 30 ± 4 s⁻¹; in series [2] it was 110 ± 30 s⁻¹; in series [3], 528 ± 6 s⁻¹; in series [4] it was 19 ± 2 s⁻¹; in series [5], 280 ± 40 s⁻¹. For the same substance, the kcat/Km in series [1] came to 16000 ± 5000 M⁻¹ s⁻¹; in series [2] it was 100000 ± 60000 M⁻¹ s⁻¹; in series [3], 4.2e+06 ± 200000 M⁻¹ s⁻¹; in series [4], 43000 ± 9000 M⁻¹ s⁻¹; in series [5], 100000 ± 30000 M⁻¹ s⁻¹.
Consider CIM-2 (Chryseobacterium indologenes), for which the Km is reported as 2,400 ± 500 µM in series [1]; 2,000 ± 300 µM in series [2]; 180 ± 20 µM in series [3]; 700 ± 200 µM in series [4]; 2,300 ± 300 µM in series [5]. In addition, the kcat in series [1] stood at 48 ± 7 s⁻¹; in series [2], 380 ± 50 s⁻¹; in series [3], 820 ± 30 s⁻¹; in series [4] it was 28 ± 5 s⁻¹; in series [5], 2000 ± 200 s⁻¹. Besides, the catalytic efficiency (kcat/Km) in series [1] worked out at 20000 ± 7000 M⁻¹ s⁻¹; in series [2], 180000 ± 50000 M⁻¹ s⁻¹; in series [3], 4.7e+06 ± 700000 M⁻¹ s⁻¹; in series [4] it was 40000 ± 20000 M⁻¹ s⁻¹; in series [5], 900000 ± 200000 M⁻¹ s⁻¹.

The record behind these values is PMC12326980.
